{
  "source": "paper PMC4856991",
  "molecular_target": "Hsp90alpha recombinant (UniProt P07900 1-732)",
  "assay": "filter binding",
  "data": [
    {"binder": "CTGCTAGCCTCTGGATTTGA (XNA, full PS; LNA nt 1-5 and 16-20, DNA 6-15)", "note": "[390896 PS/LNA 5-10-5]", "values": [
      {"measurement": "Kd", "result": 17.7, "unit": "nM"}
    ]}
  ]
}
